Assay results from article PMC7466717, “PPARγ Transcription Deficiency Exacerbates High-Fat Diet-Induced Adipocyte Hypertrophy and Insulin Resistance in Mice” (Frontiers in Pharmacology, 2020).
Ends that are not written are not given here.

T1: H6-PPARγ CDE wild-type (human PPARγ, domains from DBD to the C-terminus, residues 103–477) (human, UniProt P37231-2 103-477)
T1 construct: Human PPARγ, CDE domains (DBD, hinge, LBD to the C-terminus), residues 103-477; a C-terminus at 477 fits the 477-residue PPARγ1 isoform; Expressed from pET24a as an N-terminal 6xHis fusion; also called H6-PPARγ CDE WT; PPARγ CDE WT; source: E. coli BL21(DE3), purified (Ni HiTrap HP, SP-Sepharose); not shown: His6, N-terminal, kept
T1 sequence (looked up): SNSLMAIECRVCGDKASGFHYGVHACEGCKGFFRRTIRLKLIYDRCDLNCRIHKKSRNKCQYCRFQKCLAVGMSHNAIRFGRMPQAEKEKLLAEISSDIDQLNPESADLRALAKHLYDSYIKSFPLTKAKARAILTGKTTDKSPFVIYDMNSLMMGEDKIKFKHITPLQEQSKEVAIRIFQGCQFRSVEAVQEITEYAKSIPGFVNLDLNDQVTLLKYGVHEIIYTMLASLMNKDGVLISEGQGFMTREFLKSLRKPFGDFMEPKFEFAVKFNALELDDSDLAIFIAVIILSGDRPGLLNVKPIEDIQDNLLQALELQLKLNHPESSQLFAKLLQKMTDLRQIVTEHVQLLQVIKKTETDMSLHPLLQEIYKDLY


molecular target: T1, H6-PPARγ CDE wild-type (human PPARγ, …); assay: AlphaScreen or HTRF; 100 nM H6-PPARγ CDE, 100 nM biotin-labeled peptide, gradient doses of rosiglitazone; hexahistidine detection kit (Perkin-Elmer); 50 mmol/L MOPS, 50 mmol/L NaF, 0.05 mmol/L CHAPS, 0.1 mg/ml bovine serum albumin, pH 7.4; conditions: both partners purified

Binding result, binds:
SPSSHSSLTERHKILHRLLQEGSP (also: biotin label, position not given here) [biotin-labeled SRC1-2 coactivator peptide]
GHSFADPASNLGLEDIIRKALMGSF (also: biotin label, position not given here, not the gene NCOR2/SMRT) [biotin-labeled NCoR-2 corepressor peptide]
QEPVSPKKKENALLRYLLDKDDTKD (also: biotin label, position not given here) [biotin-labeled SRC2-3 coactivator peptide]
